Laboratory results taken from patent US20200206304A1, “METHODS AND COMPOSITIONS FOR EFFICIENT DELIVERY THROUGH MULTIPLE BIO BARRIERS” (Cedars-Sinai Medical Center, priority 2017, published 2020).

How the values were obtained:
[1] = Zeta potential measurements (Zetasizer Nano ZS90); format: physicochemical; conditions: in PBS; voltage 150 mV
Experimental: Zeta Potential Measurements: Synthesized conjugates were characterized with respect to their ζ potential using a Zetasizer Nano ZS90 (Malvern Instruments, Malvern, UK). Ten microliter aliquots of nanoconjugate samples were diluted in 0.99 mL PBS, and the voltage applied was 150 mV. Data represent the mean of three measurements±their standard deviation.

[2] = Dynamic light scattering, hydrodynamic diameter and PDI; format: physicochemical; conditions: DLS in PBS, conjugates without attached rhodamine
Experimental: Dynamic Light Scattering: Synthesized conjugates were characterized using a Zetasizer Nano ZS90 (Malvern Instruments, Malvern, UK). Ten microliter aliquots of nanoconjugate samples were diluted in 0.99 mL PBS and were measured 3 times using a clear cuvette. Data represent the mean of three measurements and polydispersity index.

[3] = system: blood-brain barrier (BBB); assay: BBB penetration: nanoconjugate fluorescence in brain parenchyma of healthy mice by optical imaging
Experimental: Healthy Mice: Eight to nine-week-old BALB/C and BLACK-6 mice were obtained from Charles River Laboratories (Wilmington, Mass., USA). […] Three to four mice of each sex were used for each experiment.
Nanoconjugates were dissolved freshly in PBS (pH 7.4) prior to each experiment and injected intravenously (i.v.) into the lateral tail vein. Mice were anesthetized with isoflurane beforehand, and their tails were briefly warmed to facilitate injections. […] The drug injection volume was kept constant at 150 μL. After each injection, mice were promptly returned to their cages. Eight to nine-week-old B116 mice were obtained from Charles River Laboratories (Wilmington, Mass., USA). […] Three to four mice of each sex were used for each experiment. Nanoconjugates were dissolved freshly in PBS (pH 7.4) prior to each experiment and injected intravenously (i.v.) into the lateral tail vein. […] All mice were euthanized 2 h post drug injection. Mice were anesthetized with isoflurane beforehand and their tails were briefly warmed to facilitate injections. All conjugates were administered as a single dose, as indicated for each experiment (4× or 8×). […]
In this analysis, 20×10 μm^2 or 10×10 μm^2 sized regions of interest (ROI) were randomly overlaid on images showing the vasculature, explicitly avoiding blood vessels. For FIG. 30A, the ROI was drawn around all Neun stained nucleuses detected. Intensity measurements and positions were then obtained for each ROI after it was separately overlaid on the image showing nanoconjugate fluorescence.
Fluorescence measurements were thus based on the anatomy of the cerebral vasculature rather than nanoconjugate labeling of whole sections or extracts of brain parenchyma and were therefore unbiased and intentionally avoiding the nanoconjugate load in the cerebral vasculature.
All nanoconjugate fluorescence measurements in brain parenchyma (e.g., FIGS. 14B-14C (1-3); 16B (1-3); 19B-19E; 20C-20D; and FIG. 22B) are presented as relative fluorescence intensities. […] Relative fluorescence measurements thus represent total fluorescence minus representative autofluorescence. […]

[4] = system: blood-brain barrier (BBB); conditions: dose 8×
Experimental: AD-Mouse models: 6-8 month old […] (B6.Cg-Tg (APPswe/PS1ΔE9) 85Dbo/J hemizygous) mice were obtained from Jackson Laboratories. Mouse maintenance and experimental procedures followed the guidelines established by the Cedars Sinai Institutional Animal Care and Use Committee (IACUC Protocol #7416). Three to four mice of each sex were used for each experiment. Nanoconjugates were dissolved freshly in PBS (pH 7.4) prior to each experiment and injected intravenously (i.v.) into the lateral tail vein. […] Mice were anesthetized with isoflurane beforehand and their tails were briefly warmed to facilitate injections. The drug injection volume was kept constant at 150 μL. After each injection, mice were promptly returned to their cages. Brains were collected and preserved in OTC for immunostaining.
The brains were harvested and a 14 μm thick slices which were fixed and stained with DAPI to envision the nuclei
A comparison with normal brain was beneficial for understanding of the development of Alzheimer's disease.

Aβ plaque = biological target: T1, Aβ plaque (Homo sapiens, UniProt P05067); assay: Percentage of total plaques labeled by mini nanodrugs in AD mice; format: in vivo,  (B6.Cg-Tg (APPswe/PS1ΔE9) 85Dbo/J hemizygous) mice; conditions: injected dose 8X (0.55 μmol/Kg)
T1 construct: tissue Jackson Laboratories; host or cells: brain of 6-8 month old APPswe/PS1ΔE9 transgenic mice, plaques labelled in vivo after iv injection and counterstained on sections
T1 sequence (P05067 672-713 limits assumed): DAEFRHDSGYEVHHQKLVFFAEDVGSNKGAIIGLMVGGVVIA
Experimental: Slides were air dries and fixed using freshly diluted 2% PFA for 5 minutes. The PFA was washed 3 timed with PBS, and brains were covered with 70% EtOH for 5 minutes before washing with dH2O for 2 minutes. 1× Amylo-Glo (Biosenses, #TR-300-AG 100×, diluted with PBS) was then added for 10 minutes. The slides were then washed with PBS (5 minutes) and dH2O (15 seconds) and mounted (Fluoromount-G, No DAPI, Invitrogen), and stored at 4° C. prior to imaging.
Brains were collected and preserved in OTC for immunostaining.

[5] = sagittal sinus, 0.068 μmol/kg
glioblastoma GL261 = conditions: mouse, in vivo
[6] = comparison, Israel et al., 2019; cited from earlier work

In the case of PMLA/LLL/AP2/rhodamine [P/LLL/AP2], the ζ potential [1] is reported as −11.6 mV, the “Hydrodynamic diameter (volume mode)” value [2] is reported as 4.45 nm and the PDI [2] is reported as “(0.39)”. For the same substance, the PDI ([2]; listed as P/LLL/AP-2) was 0.39, the “time at which nanoconjugate fluorescence could not be distinguished from background of brain parenchyma” value ([3]; 0.068 μmol/kg i.v.) was 240 min and the “time of maximal conjugate fluorescence in cortex parenchyma” value ([3]; 0.068 μmol/kg i.v.) was 30 min. The “fluorescence intensity in normal brain” value ([3]; dose 8×) was 30 units, the “fluorescence intensity in AD brain” value [4] was 10 units and the “Percentage of total plaques labeled by the reagents” value (Aβ plaque) was 1.23%. For the same substance, the “optical half-life (optically measured serum clearance)” value [5] was 1.22 h, the estimated parenchyma concentration (cortex, 120 min, 0.068 μmol/kg injection) was 0.049 ± 0.001 µmol/mL and the “percentage of free serum drug detected in the brain” value (within 120 minutes after i.v. administration) was no less than 40%. The “increase in tumor selectivity with the increase of the dose” value (glioblastoma GL261) was 2.4 fold and the half-life in blood [6] was 1.28 h.
